# Molecular target: angiotensin-converting enzyme-2 (ACE2) with the neck domain (UniProt Q9BYF1)
# Assay: mass photometry; proteins measured alone, non-labelled, in solution; counts of monomer, dimer and trimer species; ACE2 at 10 nM
substance,measurement,value
angiotensin-converting enzyme-2 (ACE2) with the neck domain (from UniProt Q9BYF1 18-740) (receptor),stoichiometry N,2

# — article PMC9680610
